To fix the notation:
B1: AFEST (Archaeoglobus fulgidus DSM 4304) (protein)
chain: MLDMPIDPVYYQLAEYFDSLPKFDQFSSAREYREAINRIYEERNRQLSQHERVERVEDRTIKGRNGDIRVRVYQQKPDSPVLVYYHGGGFVICSIESHDALCRRIARLSNSTVVSVDYRLAPEHKFPAAVYDCYDATKWVAENAEELRIDPSKIFVGGDSAGGNLAAAVSIMARDSGEDFIKHQILIYPVVNFVAPTPSLLEFGEGLWILDQKIMSWFSEQYFSREEDKFNPLASVIFADLENLPPALIITAEYDPLRDEGEVFGQMLRRAGVEASIVRYRGVLHGFINYYPVLKAARDAINQIAALLVFD
notes: pET-28a(+) in E. coli BL21-CodonPlus(DE3), Ni-NTA purified; 5' primer starts … (MLDMPI)
B2: AFEST (Archaeoglobus fulgidus DSM 4304; F287Y/S94G) (protein)
chain: B1 chain with S94G, F287Y
notes: as for B1
B3: AFEST (Archaeoglobus fulgidus DSM 4304; V293E) (protein)
chain: B1 chain with V293E
notes: as for B1
B4: AFEST (Archaeoglobus fulgidus DSM 4304; V293G) (protein)
chain: B1 chain with V293G
notes: as for B1

Substitutions are numbered along the chain they refer to. Names and notes keep the numbering of the source.

Substrate in one series: CCCC(=O)Oc1ccc([N+](=O)[O-])cc1
Put plainly: hydrolysis kinetics. It counts as biochemical, Archaeoglobus fulgidus. The note with it: 37°C. An excerpt:
hydrolysis kinetics on AFEST
With B1, the Michaelis constant (Km) (as a rule, the substrate concentration at which the rate is half of its maximum) amounted to 22.47 µM; the kcat (in general, the number of substrate molecules converted per active site and unit of time at saturation) worked out at 135 s⁻¹; the kcat/Km (commonly the turnover number divided by the Michaelis constant) is 6.03e+06 M⁻¹ s⁻¹.

As for B2, the Km is given as 15.42 µM, the kcat stood at 155 s⁻¹ and the specificity constant (kcat/Km) is 1e+07 M⁻¹ s⁻¹.

As for B3, the Km is on record as 12.13 µM, the kcat was 138 s⁻¹ and the kcat/Km was 1.14e+07 M⁻¹ s⁻¹.

As to B4, the Michaelis constant (Km) is 9.74 µM, the kcat came out at 118 s⁻¹ and the kcat/Km worked out at 1.21e+07 M⁻¹ s⁻¹.

Substrate in the next series: CCCC(=O)Oc1ccc2c(c1)Oc1cc(OC(=O)CCC)ccc1C21OC(=O)c2ccccc21
Put plainly: cells, lysate or membranes. It counts as cell-based, Archaeoglobus fulgidus. Conditions: bulk reaction; enzyme preparation not told in main text (AFEST displayed on E. coli in the parallel droplet assay).
Turning to B1, the Km came out at 240 µM.

(Values after paper PMC3933655, “An Improved Single Cell Ultrahigh Throughput Screening Method Based on In Vitro Compartmentalization” (PLoS ONE, 2014).)
